Data as given in IntAct's records for PubMed 15378002.

B1: Transcription factor Jun (Homo sapiens), P05412 (parent)
chain: MTAKMETTFYDDALNASFLPSESGPYGYSNPKILKQSMTLNLADPVGSLKPHLRAKNSDLLTSPDVGLLKLASPELERLIIQSSNGHITTTPTPTQFLCPKNVTDEQEGFAEGFVRALAELHSQNTLPSVTSAAQPVNGAGMVAPAVASVAGGSGSGGFSASLHSEPPVYANLSNFNPGALSSGGGAPSYGAAGLAFPAQPQQQQQPPHHLPQQMPVQHPRLQALKEEPQTVPEMPGETPPLSPIDMESQERIKAERKRMRNRIAASKCRKRKLERIARLEEKVKTLKAQNSELASTANMLREQVAQLKQKVMNHVNSGCQLMLTQQLQTF
partner: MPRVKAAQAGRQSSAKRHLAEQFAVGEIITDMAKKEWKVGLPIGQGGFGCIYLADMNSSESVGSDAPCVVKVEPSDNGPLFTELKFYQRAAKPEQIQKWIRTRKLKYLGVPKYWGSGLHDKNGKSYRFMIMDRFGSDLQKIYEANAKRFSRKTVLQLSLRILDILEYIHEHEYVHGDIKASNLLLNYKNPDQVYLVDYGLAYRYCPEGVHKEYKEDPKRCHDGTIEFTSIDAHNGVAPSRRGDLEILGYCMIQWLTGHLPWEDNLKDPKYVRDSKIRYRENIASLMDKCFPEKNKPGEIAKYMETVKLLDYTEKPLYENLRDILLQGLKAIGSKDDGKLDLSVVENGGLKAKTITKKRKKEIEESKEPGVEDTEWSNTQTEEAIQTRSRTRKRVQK
B2: Serine/threonine-protein kinase VRK1 (Homo sapiens), Q99986 (parent)
chain: B1 partner

Variants of: B1
Conditions: with vrk1_human VRK1, Q99986

For MTAKMETTFYDDALNASFLPSESGPYGYSNPKILKQSMTLNLADPVGSLKPHLRAKNSDLLTAPDVGLLKLAAPELERLIIQSSNGHITTTPTPTQFLCPKNVTDEQEGFAEGFVRALAELHSQNTLPSVTSAAQPVNGAGMVAPAVASVAGGSGSGGFSASLHSEPPVYANLSNFNPGALSSGGGAPSYGAAGLAFPAQPQQQQQPPHHLPQQMPVQHPRLQALKEEPQTVPEMPGETPPLSPIDMESQERIKAERKRMRNRIAASKCRKRKLERIARLEEKVKTLKAQNSELASTANMLREQVAQLKQKVMNHVNSGCQLMLTQQLQTF [S63A;S73A], which “effect of a mutation on the interaction” value is on record?
The value was “decreasing interaction”.

Variants of: B2
Conditions: with jun_human JUN, P05412

For MPRVKAAQAGRQSSAKRHLAEQFAVGEIITDMAKKEWKVGLPIGQGGFGCIYLADMNSSESVGSDAPCVVKVEPSDNGPLFTELKFYQRAAKPEQIQKWIRTRKLKYLGVPKYWGSGLHDKNGKSYRFMIMDRFGSDLQKIYEANAKRFSRKTVLQLSLRILDILEYIHEHEYVHGDIEASNLLLNYKNPDQVYLVDYGLAYRYCPEGVHKEYKEDPKRCHDGTIEFTSIDAHNGVAPSRRGDLEILGYCMIQWLTGHLPWEDNLKDPKYVRDSKIRYRENIASLMDKCFPEKNKPGEIAKYMETVKLLDYTEKPLYENLRDILLQGLKAIGSKDDGKLDLSVVENGGLKAKTITKKRKKEIEESKEPGVEDTEWSNTQTEEAIQTRSRTRKRVQK [K179E], which “effect of a mutation on the interaction” value is on record?
Its value is “disrupting interaction”.
